The values that follow come from publication PMC10799931, “Cryo- EM structure of the mycobacterial 70S ribosome in complex with ribosome hibernation promotion factor RafH” (Nature Communications, 2024).

T1: bacterial ribosomal protein bS1, M. smegmatis (M. smegmatis, UniProt A0QYY6 1-479)
T1 construct: ribosomal protein bS1 of M. smegmatis; only the two N-terminal domains OB1 and OB2 are visible in the map, the rest is disordered; Stood in the assay as a part of the 70S ribosome; the model was begun from AlphaFold2 and docked in the map; also called bS1 r-protein; source: endogenous, in ribosomes purified from M. smegmatis MC2 155
T1 sequence (looked up): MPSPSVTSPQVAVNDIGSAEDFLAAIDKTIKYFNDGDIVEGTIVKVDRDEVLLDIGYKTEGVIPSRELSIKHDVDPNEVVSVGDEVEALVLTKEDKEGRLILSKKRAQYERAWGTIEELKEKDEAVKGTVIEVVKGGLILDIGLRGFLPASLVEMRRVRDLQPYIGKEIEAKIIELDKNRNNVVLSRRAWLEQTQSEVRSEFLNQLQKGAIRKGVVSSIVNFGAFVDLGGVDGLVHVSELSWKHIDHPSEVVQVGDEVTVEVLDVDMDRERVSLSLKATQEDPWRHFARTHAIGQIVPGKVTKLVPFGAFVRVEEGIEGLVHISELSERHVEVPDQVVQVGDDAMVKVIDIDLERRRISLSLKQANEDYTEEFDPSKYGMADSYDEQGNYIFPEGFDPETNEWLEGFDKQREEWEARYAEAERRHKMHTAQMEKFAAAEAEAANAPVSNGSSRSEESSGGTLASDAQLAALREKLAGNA

B1: ribosomal protein uS11, M. smegmatis (natural protein)
chain: not shown
notes: ribosomal protein uS11 of M. smegmatis; Stood in the assay as a part of the 70S ribosome; also called uS11 r-protein; source: endogenous, in ribosomes purified from M. smegmatis MC2 155
B2: ribosomal protein uS2, M. smegmatis (natural protein, UniProt A0QVB8 1-277, looked up)
chain: MAVVTMKQLLDSGAHFGHQTRRWNPKMKRFIFTDRNGIYIIDLQQTLTYIDKAYEFVKETVAHGGTVLFVGTKKQAQESIAEEATRVGMPYVNQRWLGGMLTNFSTVHKRLQRLKELEAMEQTGGFEGRTKKEILMLTREKNKLERSLGGIRDMQKVPSAVWVVDTNKEHIAVGEARKLGIPVIAILDTNCDPDVVDYPIPGNDDAIRSAALLTKVIASAVAEGLQARAGQGSGEKPAEGAEPLAEWEQELLAGATAGAADASAEGAAAPESSTDAS
notes: ribosomal protein uS2 of M. smegmatis; Stood in the assay as a part of the 70S ribosome; also called uS2 r-protein; source: endogenous, in ribosomes purified from M. smegmatis MC2 155
B3: RafH (ribosome associated factor under hypoxia), M. smegmatis (natural protein, UniProt A0QZ86 1-258, looked up)
chain: MDVDVSTDGELPGAAEYAREKIGRLSRRAHRPVLHARVRLTRHGDPAVERPVIAQANLDVNGRQVRAQVEGVNAREAVDRLEARLRSRLERIAEHWEARRGGVPAEAGREWRHESEPARRPGYFPRPPEERRIIRRKSFSMVPCTVDEAALEMEMLDYDFHLFTEKGTGFAAVLYKGGPTGYRLVLVIPVPADELSPFEKPITISTHPAPCLTQRDAVERLGLLGLPFLFYIDAAEGRASVIYRRYDGHYGLITPADG
notes: RafH of M. smegmatis, gene MSMEG_3935, 258 amino acid residues (~30 kDa): NTD 1-100, linker 101-130, CTD 131-258; gene synthesised (GenScript) and cloned in pET-28a(+); the methods say only that the gene MSMEG_3935 was cloned; also called MSMEG_3935; source: E. coli C41(DE3), purified (Ni-NTA, size-exclusion chromatography)
B4: ribosomal protein uS9, M. smegmatis (natural protein, UniProt A0QSP9 1-150, looked up)
chain: MTDVTETEVVTESAEPREPVIIDRPIQTVGRRKEAVVRVRLVPGTGQFNLDGRTLENYFPNKVHQQLIKAPLVTVDRVDQFDIYAHLDGGGPSGQAGALRLAIARALILVQPEDRPALKKAGFLTRDPRAIERKKYGLKKARKAPQYSKR
notes: ribosomal protein uS9 of M. smegmatis; C-terminal residue R150; Stood in the assay as a part of the 70S ribosome; also called r-protein uS9; source: endogenous, in ribosomes purified from M. smegmatis MC2 155

Experiment [1] concerns the target B3. Description: cryo-EM structure; single particle cryo-EM of the in-vitro reconstituted 70S ribosome RafH complex (Titan Krios 300 kV, Falcon 3, Relion 3.1.4); overall 2.8 Å; maps with bS1 or E-site tRNA low pass filtered to 3.5 Å. The conditions noted are these: both partners purified.
Experiment [2] concerns the target T1, bacterial ribosomal protein bS1, M. …. The description is as above. The conditions noted are these: both partners purified.

Regarding B1, the binding result in experiment [1] was “binds”.

For the molecule B2, in experiment [2], the binding result is given as “binds”.

For the molecule B3, the binding result in experiment [2] was “binds”.

For B4, the binding result in experiment [1] was “binds”.
